Experiments:
[1] = molecular target: Recombinant, his tagged full length human frataxin protein (Abcam ab95502) (human) (UniProt Q16595); test: Simoa sandwich 3-step; capture Ab-1
[2] = molecular target: Recombinant, his tagged full length human frataxin protein (Abcam ab95502) (human) (UniProt Q16595); test: Simoa sandwich 2-step; capture Ab-1
[3] = molecular target: Recombinant, his tagged full length human frataxin protein (Abcam ab95502) (human) (UniProt Q16595); test: Simoa sandwich 2-step; capture Ab-1; 150 pM SβG
[4] = molecular target: Recombinant, his tagged full length human frataxin protein (Abcam ab95502) (human) (UniProt Q16595); test: Simoa sandwich 3-step; capture Ab-4; frataxin 100 pg/mL
[5] = molecular target: Recombinant, his tagged full length human frataxin protein (Abcam ab95502) (human) (UniProt Q16595); test: Simoa sandwich 3-step; capture Ab-2; frataxin 100 pg/mL
[6] = molecular target: Recombinant, his tagged full length human frataxin protein (Abcam ab95502) (human) (UniProt Q16595); test: Simoa sandwich 3-step; capture Ab-1; frataxin 100 pg/mL
[7] = molecular target: Recombinant, his tagged full length human frataxin protein (Abcam ab95502) (human) (UniProt Q16595); test: Simoa sandwich 3-step; capture Ab-1; frataxin 1000 pg/mL
[8] = molecular target: Recombinant, his tagged full length human frataxin protein (Abcam ab95502) (human) (UniProt Q16595); test: Simoa sandwich 3-step; capture Ab-4; frataxin 1000 pg/mL
[9] = molecular target: Recombinant, his tagged full length human frataxin protein (Abcam ab95502) (human) (UniProt Q16595); test: Simoa sandwich 3-step; capture Ab-2; frataxin 1000 pg/mL
[10] = molecular target: Recombinant, his tagged full length human frataxin protein (Abcam ab95502) (human) (UniProt Q16595); test: Simoa sandwich 2-step; capture Ab-1; frataxin 55.6 pg/mL
[11] = molecular target: Recombinant, his tagged full length human frataxin protein (Abcam ab95502) (human) (UniProt Q16595); test: Simoa sandwich 2-step; capture Ab-2; frataxin 18.5 pg/mL
[12] = molecular target: Recombinant, his tagged full length human frataxin protein (Abcam ab95502) (human) (UniProt Q16595); test: Simoa sandwich 2-step; capture Ab-2; frataxin 55.6 pg/mL
[13] = molecular target: Recombinant, his tagged full length human frataxin protein (Abcam ab95502) (human) (UniProt Q16595); test: Simoa sandwich 3-step; capture Ab-3; frataxin 10000 pg/mL
[14] = molecular target: Recombinant, his tagged full length human frataxin protein (Abcam ab95502) (human) (UniProt Q16595); test: Simoa sandwich 2-step; capture Ab-1; 50 pM SβG; frataxin 55.6 pg/mL
[15] = molecular target: Recombinant, his tagged full length human frataxin protein (Abcam ab95502) (human) (UniProt Q16595); test: Simoa sandwich 2-step; capture Ab-1; 50 pM SβG; frataxin 0.686 pg/mL
[16] = molecular target: Recombinant, his tagged full length human frataxin protein (Abcam ab95502) (human) (UniProt Q16595); test: Simoa sandwich 2-step (120 min-5 min); capture Ab-1; frataxin 222 pg/mL
[17] = molecular target: Recombinant, his tagged full length human frataxin protein (Abcam ab95502) (human) (UniProt Q16595); test: Simoa sandwich 2-step (120 min-5 min); capture Ab-1; Diluent 1 + 10% NCS
[18] = molecular target: Recombinant, his tagged full length human frataxin protein (Abcam ab95502) (human) (UniProt Q16595); test: Simoa sandwich 2-step (120 min-5 min); capture Ab-1; frataxin 8.23 pg/mL
[19] = molecular target: Recombinant, his tagged full length human frataxin protein (Abcam ab95502) (human) (UniProt Q16595); test: Simoa sandwich 2-step (120 min-5 min); capture Ab-1; Diluent 1 + 5% NCS; frataxin 111 pg/mL
[20] = molecular target: Recombinant, his tagged full length human frataxin protein (Abcam ab95502) (human) (UniProt Q16595); test: Simoa sandwich 2-step (120 min-5 min); capture Ab-1; Diluent 1 + 10% NCS; frataxin 333 pg/mL
[21] = molecular target: Recombinant, his tagged full length human frataxin protein (Abcam ab95502) (human) (UniProt Q16595); test: Simoa sandwich 2-step (120 min-5 min); capture Ab-1; Diluent 1 + 5% NCS; frataxin 1000 pg/mL
[22] = molecular target: Recombinant, his tagged full length human frataxin protein (Abcam ab95502) (human) (UniProt Q16595); test: Simoa sandwich 2-step (120 min-5 min); capture Ab-1; Diluent 1 + 10% NCS; frataxin 22.2 pg/mL
[23] = molecular target: Recombinant, his tagged full length human frataxin protein (Abcam ab95502) (human) (UniProt Q16595); test: Simoa sandwich 2-step (120 min-5 min); capture Ab-1; Diluent 1 + 10% NCS; frataxin 66.7 pg/mL
[24] = molecular target: Recombinant, his tagged full length human frataxin protein (Abcam ab95502) (human) (UniProt Q16595); test: Simoa sandwich 2-step (120 min-5 min); capture Ab-1; Diluent 1 + 10% NCS; frataxin 7.41 pg/mL
[25] = molecular target: Recombinant, his tagged full length human frataxin protein (Abcam ab95502) (human) (UniProt Q16595); test: Simoa sandwich 2-step (120 min-5 min); capture Ab-1; Diluent 1 + 10% NCS; frataxin 1.37 pg/mL
[26] = molecular target: Recombinant, his tagged full length human frataxin protein (Abcam ab95502) (human) (UniProt Q16595); test: Simoa sandwich 2-step (120 min-5 min); capture Ab-1; Diluent 1 + 10% NCS; frataxin 1000 pg/mL

Sequence of UniProt Q16595 (Q16595 42-210): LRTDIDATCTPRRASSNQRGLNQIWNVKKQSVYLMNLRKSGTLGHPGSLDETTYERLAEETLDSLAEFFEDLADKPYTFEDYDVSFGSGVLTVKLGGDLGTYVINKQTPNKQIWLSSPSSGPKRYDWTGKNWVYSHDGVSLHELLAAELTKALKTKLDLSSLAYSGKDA

Substance: Ab-3, mouse monoclonal [18A5DB1] to Frataxin (Abcam ab110328) (antibody)
- LOD [1]: 1.14 pg/mL
- LOD [2]: 0.27 pg/mL
- LOD [3]: 0.272 pg/mL
- Ave AEB [4]: 1.05 AEB
- S/B [4]: 21.9
- Ave AEB [5]: 2.03 AEB
- S/B [5]: 45.8
- Ave AEB [6]: 2.47 AEB
- S/B [6]: 50
- Ave AEB [7]: 17.4 AEB
- S/B [7]: 352
- Ave AEB [8]: 25.2 AEB
- S/B [8]: 215
- Ave AEB [9]: 20.7 AEB
- S/B [9]: 330
- Ave AEB [10]: 5.52 AEB
- S/B [10]: 53.2
- Ave AEB [11]: 2.15 AEB
- S/B [11]: 22.5
- Ave AEB [12]: 5.21 AEB
- S/B [12]: 54.6
- Ave AEB [13]: 1.06 AEB
- S/B [13]: 224
- Ave AEB [14]: 1.65 AEB
- S/B [14]: 90
- Ave AEB [15]: 0.0421 AEB
- S/B [15]: 2.3
- AEB rep1 [16]: 1.01 AEB
- AEB rep2 [16]: 1.08 AEB
- AEB rep3 [16]: 1.04 AEB
- Ave AEB [16]: 1.04 AEB
- S/B [16]: 127
- LOD [17]: 0.759 pg/mL
- AEB rep1 [18]: 0.0466 AEB
- AEB rep2 [18]: 0.048 AEB
- AEB rep3 [18]: 0.0517 AEB
- Ave AEB [18]: 0.0487 AEB
- S/B [18]: 5.91
- Ave AEB [19]: 1.02 AEB
- S/B [19]: 93.1
- Ave AEB [20]: 1.56 AEB
- S/B [20]: 145
- Ave AEB [21]: 8.95 AEB
- S/B [21]: 815
- Ave AEB [22]: 0.2 AEB
- S/B [22]: 11
- Ave AEB [23]: 0.602 AEB
- S/B [23]: 33.1
- Ave AEB [24]: 0.0923 AEB
- S/B [24]: 5.08
- Ave AEB [25]: 0.0153 AEB
- S/B [25]: 1.42
- Ave AEB [26]: 5.18 AEB
- S/B [26]: 482

Source: US20220308072A1
